Laboratory results reported in US20180086841A1 (Merck Sharp & Dohme, published 2018).

T1: H36A
T1 construct: also called hCD27 H36A
T1 receptor chain: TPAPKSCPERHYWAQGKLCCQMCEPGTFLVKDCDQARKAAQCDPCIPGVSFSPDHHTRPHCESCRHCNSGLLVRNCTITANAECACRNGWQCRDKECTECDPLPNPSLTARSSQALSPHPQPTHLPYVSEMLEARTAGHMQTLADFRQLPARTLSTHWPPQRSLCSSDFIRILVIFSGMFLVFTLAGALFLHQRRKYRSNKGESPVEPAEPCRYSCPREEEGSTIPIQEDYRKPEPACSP

T2: R37A
T2 construct: also called hCD27 R37A
T2 receptor chain: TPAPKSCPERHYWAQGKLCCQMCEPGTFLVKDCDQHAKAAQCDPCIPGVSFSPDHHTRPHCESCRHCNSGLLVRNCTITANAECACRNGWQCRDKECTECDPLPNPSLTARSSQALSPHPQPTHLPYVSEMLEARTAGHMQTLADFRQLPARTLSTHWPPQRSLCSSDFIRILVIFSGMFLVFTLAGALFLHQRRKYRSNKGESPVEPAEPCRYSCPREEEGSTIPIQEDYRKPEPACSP

T3: K38A
T3 construct: also called hCD27 K38A
T3 receptor chain: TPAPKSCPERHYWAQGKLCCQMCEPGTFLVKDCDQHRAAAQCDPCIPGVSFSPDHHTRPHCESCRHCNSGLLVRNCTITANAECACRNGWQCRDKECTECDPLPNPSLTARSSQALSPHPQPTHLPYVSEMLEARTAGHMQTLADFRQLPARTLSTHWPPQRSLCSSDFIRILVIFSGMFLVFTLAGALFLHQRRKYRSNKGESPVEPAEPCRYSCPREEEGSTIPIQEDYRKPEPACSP

T4: P8A
T4 construct: also called hCD27 P8A
T4 receptor chain: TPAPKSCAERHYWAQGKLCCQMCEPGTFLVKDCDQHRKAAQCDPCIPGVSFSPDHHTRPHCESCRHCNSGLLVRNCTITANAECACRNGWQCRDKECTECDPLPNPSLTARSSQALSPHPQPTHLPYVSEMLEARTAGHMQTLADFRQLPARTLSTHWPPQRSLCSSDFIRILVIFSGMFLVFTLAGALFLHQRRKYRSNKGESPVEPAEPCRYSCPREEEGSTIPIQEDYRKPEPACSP

T5: W90A
T5 construct: also called hCD27 W90A
T5 receptor chain: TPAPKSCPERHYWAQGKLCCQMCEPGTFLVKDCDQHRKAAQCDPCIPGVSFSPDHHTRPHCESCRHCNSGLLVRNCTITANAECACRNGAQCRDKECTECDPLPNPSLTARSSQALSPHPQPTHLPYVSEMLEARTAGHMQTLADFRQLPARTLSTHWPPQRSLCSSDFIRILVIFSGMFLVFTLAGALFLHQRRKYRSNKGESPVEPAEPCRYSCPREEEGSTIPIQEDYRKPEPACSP

T6: R87A
T6 construct: also called hCD27 R87A
T6 receptor chain: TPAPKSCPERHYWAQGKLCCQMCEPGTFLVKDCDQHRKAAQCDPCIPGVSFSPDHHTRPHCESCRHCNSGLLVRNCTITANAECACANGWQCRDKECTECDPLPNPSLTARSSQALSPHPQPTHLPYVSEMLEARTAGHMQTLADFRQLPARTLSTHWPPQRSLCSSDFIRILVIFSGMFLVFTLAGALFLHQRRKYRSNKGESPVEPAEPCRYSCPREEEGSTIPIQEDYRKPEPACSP

T7: D32A
T7 construct: also called hCD27 D32A
T7 receptor chain: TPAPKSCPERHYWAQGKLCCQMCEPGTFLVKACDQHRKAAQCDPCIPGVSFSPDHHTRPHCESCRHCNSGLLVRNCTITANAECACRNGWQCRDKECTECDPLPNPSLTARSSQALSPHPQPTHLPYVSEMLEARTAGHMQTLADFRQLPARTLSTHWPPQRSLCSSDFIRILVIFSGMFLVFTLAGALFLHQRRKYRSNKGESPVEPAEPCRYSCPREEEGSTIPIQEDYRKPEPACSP

T8: P44A
T8 construct: also called hCD27 P44A
T8 receptor chain: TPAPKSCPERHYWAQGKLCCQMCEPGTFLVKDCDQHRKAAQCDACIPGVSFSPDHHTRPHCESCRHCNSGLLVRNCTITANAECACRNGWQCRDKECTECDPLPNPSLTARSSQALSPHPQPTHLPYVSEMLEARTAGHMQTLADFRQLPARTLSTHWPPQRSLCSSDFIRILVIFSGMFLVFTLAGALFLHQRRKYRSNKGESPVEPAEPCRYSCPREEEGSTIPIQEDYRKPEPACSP

T9: W13A
T9 construct: also called hCD27 W13A
T9 receptor chain: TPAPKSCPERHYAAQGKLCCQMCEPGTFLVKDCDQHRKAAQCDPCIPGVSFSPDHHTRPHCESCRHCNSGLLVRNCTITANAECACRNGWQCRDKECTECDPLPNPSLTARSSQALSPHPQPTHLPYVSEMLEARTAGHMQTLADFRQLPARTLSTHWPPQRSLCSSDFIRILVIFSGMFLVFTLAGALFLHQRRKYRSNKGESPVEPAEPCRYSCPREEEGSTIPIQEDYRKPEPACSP


How the values were obtained:
H36A [1] = target: T1, H36A; assay: flow cytometry on CHO-K1 transfectants, left sub-column, cell hatched (loss of binding)
Method: (§1) The ability of several anti-hCD27 antibodies to bind to a series of hCD27 alanine mutants was determined using CHO-K1 cells, transiently transfected pCI-neo empty vector, pCI-neo.hCD27 and several pCI-neo.CD27Ala mutant constructs.
(§2) Detached cells were transferred to 96 wells round-bottomed well plates at approximately 1.2×10⁵ cells/well. After spinning down the cells, discarding the supernatants and re-suspending the cells in the residual volume, the primary antibodies were added and incubated for 30 minutes at 4° C. Cells were washed three times with DPBS/BSA 1%, followed by centrifugation, discarding of the supernatants and re-suspension in the residual volume. […] After washing once, antibody binding was detected using the HTS plate reader (FACS Canto II) and FlowJo software for data analysis. Debris, dead cells and doublets were excluded from the analysis. Binding was expressed as the geometric mean of the FITC signal, relative to antibody binding to hCD27, which was set at 100%.

R37A = target: T2, R37A; assay: as above
Method: as §1, §2

K38A [2] = target: T3, K38A; assay: as above
Method: as §1, §2

P8A [3] = target: T4, P8A; assay: as above
Method: as §1, §2

W90A = target: T5, W90A; assay: flow cytometry on CHO-K1 transfectants;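 also: Anti-hCD27 antibodies tested on transiently transfected CHO-K1 cells bearing hCD27 alanine mutants, 30 min at 4 °C primary incubation, FITC readout excluding debris, dead cells and doublets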
Method: (§3) The hCD27 variants that were tested are listed. Amino acids correspond to the UniProt P26842-1 sequence. Amino acids 1-20 constitute the signal peptide. Binding is expressed as the geometric mean of the FITC signal, relative to antibody binding to hCD27, which was set at 100%.
as §1, §2

H36A [4] = target: T1, H36A; assay: flow cytometry on CHO-K1 transfectants;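 also: Anti-hCD27 antibodies tested on transiently transfected CHO-K1 cells bearing hCD27 alanine mutants, 30 min at 4 °C primary incubation, FITC readout excluding debris, dead cells and doublets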
Method: as §3, §1, §2

R87A = target: T6, R87A; assay: flow cytometry on CHO-K1 transfectants;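 also: Anti-hCD27 antibodies tested on transiently transfected CHO-K1 cells bearing hCD27 alanine mutants, 30 min at 4 °C primary incubation, FITC readout excluding debris, dead cells and doublets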
Method: as §3, §1, §2

D32A = target: T7, D32A; assay: flow cytometry on CHO-K1 transfectants;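 also: Anti-hCD27 antibodies tested on transiently transfected CHO-K1 cells bearing hCD27 alanine mutants, 30 min at 4 °C primary incubation, FITC readout excluding debris, dead cells and doublets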
Method: as §3, §1, §2

K38A [5] = target: T3, K38A; assay: flow cytometry on CHO-K1 transfectants
Method: as §3, §1, §2

P44A = target: T8, P44A; assay: flow cytometry on CHO-K1 transfectants
Method: as §3, §1, §2

P8A [6] = target: T4, P8A; assay: flow cytometry on CHO-K1 transfectants
Method: as §3, §1, §2

W13A = target: T9, W13A; assay: flow cytometry on CHO-K1 transfectants
Method: as §3, §1, §2

binding, WT hCD27 = 100 (GM FITC) (H36A [1]) [%] | binding, WT hCD27 = 100 (GM FITC) (R37A) [%] | binding, WT hCD27 = 100 (GM FITC) (K38A [2]) [%] | binding, WT hCD27 = 100 (GM FITC) (P8A [3]) [%] | binding, WT hCD27 = 100 (GM FITC) (W90A) [%] | binding, WT hCD27 = 100 (GM FITC) (H36A [4]) [%] | binding, WT hCD27 = 100 (GM FITC) (R87A) [%] | binding, WT hCD27 = 100 (GM FITC) (D32A) [%] | binding, WT hCD27 = 100 (GM FITC) (K38A [5]) [%] | binding, WT hCD27 = 100 (GM FITC) (P44A) [%] | binding, WT hCD27 = 100 (GM FITC) (P8A [6]) [%] | binding, WT hCD27 = 100 (GM FITC) (W13A) [%] | Binder
54.1 | 50.3 | 48.2 | 44.9 | – | – | – | – | – | – | – | – | hCD27.131A (mouse parental 131A) (antibody, mouse IgG1, V domains shown, Mouse IgG1 antibody; also called mouse hCD27.131A) VH: QIQLVQSGPELKKPGETVKISCKASGYTFTNYGMNWVKQAPGKGLKWMGWINTNTGEPTYAEEFKGRFAFSLETSATTAYLQINNLKNEDTATYFCAREGDAMDYWGQGTSVTVSS VL: QIVLTQSPAIMSASPGEKVTMTCSASSSVSYMHWYQQKSGTSPKRWIYDTSKLASGVPARFSGSGSGTSYSLTISSMEAEDAATYYCQQWNSYPFTFGSGTKLEIK
– | – | – | – | 93.8 | 122 | 114 | 50.6 | 97.6 | 68.7 | 63 | 71.4 | hCD27.15-6B (antibody, human IgG4 S228P, kappa, V domains shown, also called hCD27.15 (humanized 6B); humanized hCD27.15 (human IgG4, Clone 6B)) VH: QVQLVQSGAEVKKPGASVKVSCKASGFIIKATYMHWVRQAPGQRLEWMGRIDPANGETKYDPKFQVRVTITADTSASTAYMELSSLRSEDTAVYYCARYAWYFDVWGQGTLVTVSS VL: DIQMTQSPSSLSASVGDRVTITCRASENIYSFLAWYQQKPGKAPKLLIYHAKTLAEGVTSRFSGSGSGTDFTLTISSLQPEDSATYYCQHYYGSPLTFGQGTRLEIKR
